± gives the uncertainty stated by the source.
B1: Androgen receptor, residues 557 to 632; numbered along this chain, P10275 (parent)
chain: QKTCLICGDEASGCHYGALTCGSCKVFFKRAAEGKQKYLCASRNDCTIDKFRRKNCPSCRLRKCYEAGMTLGARKL

Variants of: B1
Experiment: abundance fitness (aPCA) (normalised: wild type 0, dead -1); higher = more abundant; growth selection in yeast, the domain comes from the species named
Settings: Homo sapiens
With QKTCLICGDEASGCHYGALTCGNCKVFFKRAAEGKQKYLCASRNDCTIDKFRRKNCPSCRLRKCYEAGMTLGARKL the abundance fitness was -0.108 ± 0.082.
Variant QKTCLICGDEASGCHYGALTCGMCKVFFKRAAEGKQKYLCASRNDCTIDKFRRKNCPSCRLRKCYEAGMTLGARKL has an abundance fitness of -0.137 ± 0.035.
QKTCLICGDEASGCHYGALTCGFCKVFFKRAAEGKQKYLCASRNDCTIDKFRRKNCPSCRLRKCYEAGMTLGARKL gave an abundance fitness of -0.11 ± 0.084.
Work on QKTCLICGDEASGCHYGALTCGDCKVFFKRAAEGKQKYLCASRNDCTIDKFRRKNCPSCRLRKCYEAGMTLGARKL yielded an abundance fitness of -0.069 ± 0.069.
For QKTCLICGDEASGCHYGALTCGWCKVFFKRAAEGKQKYLCASRNDCTIDKFRRKNCPSCRLRKCYEAGMTLGARKL, the abundance fitness was -0.137 ± 0.041.
QKTCLICGDEASGCHYGALTCGICKVFFKRAAEGKQKYLCASRNDCTIDKFRRKNCPSCRLRKCYEAGMTLGARKL showed an abundance fitness of -0.836 ± 0.36.
Variant QKTCLICGDEASGCHYGALTCGLCKVFFKRAAEGKQKYLCASRNDCTIDKFRRKNCPSCRLRKCYEAGMTLGARKL has an abundance fitness of -0.283 ± 0.035.
QKTCLICGDEASGCHYGALTCGYCKVFFKRAAEGKQKYLCASRNDCTIDKFRRKNCPSCRLRKCYEAGMTLGARKL gave an abundance fitness of -0.122 ± 0.057.
Work on QKTCLICGDEASGCHYGALTCGGCKVFFKRAAEGKQKYLCASRNDCTIDKFRRKNCPSCRLRKCYEAGMTLGARKL yielded an abundance fitness of -0.054 ± 0.029.
QKTCLICGDEASGCHYGALTCGACKVFFKRAAEGKQKYLCASRNDCTIDKFRRKNCPSCRLRKCYEAGMTLGARKL showed an abundance fitness of -0.163 ± 0.037.
Work on QKTCLICGDEASGCHYGALTCGECKVFFKRAAEGKQKYLCASRNDCTIDKFRRKNCPSCRLRKCYEAGMTLGARKL yielded an abundance fitness of -0.013 ± 0.034.
QKTCLICGDEASGCHYGALTCGCCKVFFKRAAEGKQKYLCASRNDCTIDKFRRKNCPSCRLRKCYEAGMTLGARKL showed an abundance fitness of -0.185 ± 0.076.
Variant QKTCLICGDEASGCHYGALTCGKCKVFFKRAAEGKQKYLCASRNDCTIDKFRRKNCPSCRLRKCYEAGMTLGARKL has an abundance fitness of -0.142 ± 0.039.
With QKTCLICGDEASGCHYGALTCGQCKVFFKRAAEGKQKYLCASRNDCTIDKFRRKNCPSCRLRKCYEAGMTLGARKL the abundance fitness was -0.084 ± 0.042.
With QKTCLICGDEASGCHYGALTCGTCKVFFKRAAEGKQKYLCASRNDCTIDKFRRKNCPSCRLRKCYEAGMTLGARKL the abundance fitness was -0.233 ± 0.041.
In the case of QKTCLICGDEASGCHYGALTCGHCKVFFKRAAEGKQKYLCASRNDCTIDKFRRKNCPSCRLRKCYEAGMTLGARKL, the abundance fitness is reported as -0.036 ± 0.077.
QKTCLICGDEASGCHYGALTCISCKVFFKRAAEGKQKYLCASRNDCTIDKFRRKNCPSCRLRKCYEAGMTLGARKL showed an abundance fitness of -0.262 ± 0.054.
QKTCLICGDEASGCHYGALTCYSCKVFFKRAAEGKQKYLCASRNDCTIDKFRRKNCPSCRLRKCYEAGMTLGARKL showed an abundance fitness of -0.207 ± 0.059.
QKTCLICGDEASGCHYGALTCHSCKVFFKRAAEGKQKYLCASRNDCTIDKFRRKNCPSCRLRKCYEAGMTLGARKL showed an abundance fitness of -0.152 ± 0.068.
In the case of QKTCLICGDEASGCHYGALTCSSCKVFFKRAAEGKQKYLCASRNDCTIDKFRRKNCPSCRLRKCYEAGMTLGARKL, the abundance fitness is reported as -0.048 ± 0.047.
With QKTCLICGDEASGCHYGALTCASCKVFFKRAAEGKQKYLCASRNDCTIDKFRRKNCPSCRLRKCYEAGMTLGARKL the abundance fitness was -0.025 ± 0.056.
QKTCLICGDEASGCHYGALTCKSCKVFFKRAAEGKQKYLCASRNDCTIDKFRRKNCPSCRLRKCYEAGMTLGARKL showed an abundance fitness of -0.114 ± 0.051.
With QKTCLICGDEASGCHYGALTCFSCKVFFKRAAEGKQKYLCASRNDCTIDKFRRKNCPSCRLRKCYEAGMTLGARKL the abundance fitness was -0.322 ± 0.053.
In the case of QKTCLICGDEASGCHYGALTCESCKVFFKRAAEGKQKYLCASRNDCTIDKFRRKNCPSCRLRKCYEAGMTLGARKL, the abundance fitness is reported as 0.064 ± 0.062.
For QKTCLICGDEASGCHYGALTCWSCKVFFKRAAEGKQKYLCASRNDCTIDKFRRKNCPSCRLRKCYEAGMTLGARKL, the abundance fitness was -0.034 ± 0.052.
In the case of QKTCLICGDEASGCHYGALTCMSCKVFFKRAAEGKQKYLCASRNDCTIDKFRRKNCPSCRLRKCYEAGMTLGARKL, the abundance fitness is reported as -0.163 ± 0.052.
Variant QKTCLICGDEASGCHYGALTCCSCKVFFKRAAEGKQKYLCASRNDCTIDKFRRKNCPSCRLRKCYEAGMTLGARKL has an abundance fitness of -0.064 ± 0.051.
In the case of QKTCLICGDEASGCHYGALTCDSCKVFFKRAAEGKQKYLCASRNDCTIDKFRRKNCPSCRLRKCYEAGMTLGARKL, the abundance fitness is reported as -0.033 ± 0.064.
With QKTCLICGDEASGCHYGALTCVSCKVFFKRAAEGKQKYLCASRNDCTIDKFRRKNCPSCRLRKCYEAGMTLGARKL the abundance fitness was -0.141 ± 0.042.
QKTCLICGDEASGCHYGALTCQSCKVFFKRAAEGKQKYLCASRNDCTIDKFRRKNCPSCRLRKCYEAGMTLGARKL gave an abundance fitness of -0.037 ± 0.058.
For QKTCLICGDEASGCHYGALTCPSCKVFFKRAAEGKQKYLCASRNDCTIDKFRRKNCPSCRLRKCYEAGMTLGARKL, the abundance fitness was -0.026 ± 0.071.
QKTCLICGDEASGCHYGALTCTSCKVFFKRAAEGKQKYLCASRNDCTIDKFRRKNCPSCRLRKCYEAGMTLGARKL gave an abundance fitness of -0.06 ± 0.063.
QKTCLICGDEASGCHYGALTCRSCKVFFKRAAEGKQKYLCASRNDCTIDKFRRKNCPSCRLRKCYEAGMTLGARKL gave an abundance fitness of -0.166 ± 0.047.
QKTCLICGDEASGCHYGALRCGSCKVFFKRAAEGKQKYLCASRNDCTIDKFRRKNCPSCRLRKCYEAGMTLGARKL gave an abundance fitness of -0.859 ± 0.063.
Variant QKTCLICGDEASGCHYGALQCGSCKVFFKRAAEGKQKYLCASRNDCTIDKFRRKNCPSCRLRKCYEAGMTLGARKL has an abundance fitness of -0.856 ± 0.12.
QKTCLICGDEASGCHYGALWCGSCKVFFKRAAEGKQKYLCASRNDCTIDKFRRKNCPSCRLRKCYEAGMTLGARKL showed an abundance fitness of -0.637 ± 0.084.
